Tests used:
[1] = target: SARS-CoV-2 spike protein bearing furin mutation and truncation in retention sequence, on pseudovirus (SARS-CoV-2, UniProt P0DTC2 14-1255); assay: cell-based or functional assay
[2] = target: T1, S1 subunit of the SARS-CoV-2 spike protein (Sino Biological 40591-V08H), His tag (SARS-CoV-2, UniProt P0DTC2 16-685)
T1 construct: domain: S1 subunit

[3] = target: full-length stabilised spike trimer protein of SARS-CoV-2 virus (in-house, soluble ECD with trimeris (SARS-CoV-2, UniProt P0DTC2 14-1208; P10104 458-484)

B1: YANG-1112 (antibody, V domains shown)
VH: QITLKESGPTLVKPTQTLTLTCTFSGFSLSTGGVAVGWIRQPPGKALEWLAIIYWDDDKRYSPSLKSRLTITKDTSKNQVVLTMTNMDPVDTATYYCAHWGKDSFDIWGQGTMVTVSS
VL: SYELTQPPSVSVSPGQTARITCSGDALPRKYAYWYQQKSGQAPVLVIYEDNNRPSGIPERFSGSSSGTTATLTVSGAQVEDEADYYCYSTDTSGYVVFGGGTKLTVL
- pseudovirus neutralisation IC50 [1]: 520 pM

B2: YANG-1301 (antibody, V domains shown)
VH: QVQLVESGGGVVQPGRSLRLSCAASGFTFSSYGMHWVRQAPGKGLEWVAVIWYDGSNKFYADSVKGRFTISRDNSKNTLYLQMNSLKAEDTAVYYCARDTWIGESDTSWLDPWGQGTLVTVSS
VL: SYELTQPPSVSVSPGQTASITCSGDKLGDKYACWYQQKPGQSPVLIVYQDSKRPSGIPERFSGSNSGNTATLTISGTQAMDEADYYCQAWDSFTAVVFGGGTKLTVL
- pseudovirus neutralisation IC50 [1]: 520 pM

B3: YANG-1302 (antibody, V domains shown)
VH: QVQLVESGGGAVQPGRSLRLSCRASGFTFSSFGMNWVRQVPGKGLVWVAGIWYDGRNKYYADSVKGRFTISRENSKNMLYLQMNSLRAEDTAVYYCARDQDSGFDGNWFGPWGQGTMVTVSS
VL: SYELTQPPSMSVSPGQTASITCSGDNLGDKYVCWYQQRPGQSPVMVIFQDSTRPSGIPERFSGSNSGNTATLTISGTQAMDEADYYCQAWDSNTAVFGGGTKLTVL
- pseudovirus neutralisation IC50 [1]: 230 pM

B4: YANG-1401 (antibody, V domains shown)
VH: QVHLQESGPGLVKPSGTLSLTCAVSGGSFSQINWWSWVRQSPGKGLEWIGEIYHSGSTNYNPSLKSRVTMSVDKSKNQFSLALNSVTAADTAVYYCARGYYGDNWFDSWGQGTLVTVSS
VL: DIQMTQSPSSLSASIGDRVTITCRASQGISNWLVWYQQKPEKAPKSLIYAASSLQSGVPSRFSGSGSGTDFTLTISSLHPEDFATYYCQQYSDYPLTFGGGTKVEIK
- pseudovirus neutralisation IC50 [1]: 530 pM

B5: YANG-2107 (antibody, V domains shown)
VH: QVQLQESGPGLVKPSGTLSLTCAVSGGSIRSSNWWIWVRQSPGKGLEWIGEIYHGGNTNYNPSLKSRVTLSVDKSKNQFSLKLSSVTAADTAVYYCARALYDIGGVFDIWGQGTMVTVSS
VL: QSALTQPASVSGSPGQSISISCTGTSSDIGGYNYVSWYQQHPGKAPKLMIYDVSERPSGVSNRFSGSKSGNTASLTISGLQAEDEGDYYCCSYAANSNVVFGGGTKLSVL
- pseudovirus neutralisation IC50 [1]: 300 pM

B6: YANG-2108 (antibody, V domains shown)
VH: QVQLQESGPGQVKPSGTLSLTCAVSGGSIRSSNWWIWVRQPPGKGLEWIGEIYHGGNTNYSPSLKSRVSISVDKSKNHFSLNLTSVTAADTAVYYCARALYDVGGVFDIWGQGTMVTVSS
VL: QSALTQPASVSGSPGQSITISCTGSSSDVGGYNYVSWYQQHPGKAPKLMIYDVSERPSGVSNRFSGSKSGNTASLTISGLQAEDEGDYYCCSYAANSNVVFGGGTKLSVL
- pseudovirus neutralisation IC50 [1]: 270 pM

B7: YANG-2111 (antibody, V domains shown)
VH: GVQLVESGGGLVQPGRSLRLSCAASGFTFDDYALHWVRQVPGKGLEWVSSISWNSDDLGYADSVEGRFTISRDNAKNSLYLQMSSLRTEDTALYYCVKDTRAHYDILAGYRGLDSWGQGTLVTVSS
VL: DIVMTQSPLSLPVTPGEPASISCRSTQSLLHSNGYNFLDWYLQKPGQSPQLLIYLGSNRASGVPDRFSGSGSGTDFSLKISRVEAEDIGIYYCIQGLQTPITFGQGTRLEIK
- pseudovirus neutralisation IC50 [1]: 1330 pM

B8: YANG-2203 (antibody, V domains shown)
VH: QVQLVQSGAEVKQPGASVKVSCRASGYALTSFYVHWVRQAPGQGLEWMGIIKPSGGDTIYAQNLQGRVTMTRDTSTNTFYVELSSLRSEDTALYYCAISGNTRAFEIWGQGTMVTVSL
VL: QSVLTQPPSVSAAPGQKVTISCSGSSSNIGNNFVSWYQQLPGMVPKLLIYANNKRPSGIPDRFSGSRSGTSATLGITGLQTGDEADYYCGTWDSSRSAVLFGGGTKMTVL
- pseudovirus neutralisation IC50 [1]: 5450 pM

B9: YANG-2205 (antibody, V domains shown)
VH: QIQLVQSGAEVKKPGASVKFSCKTSGYTFTSYYMVWVRQAPGQGLEWMGIIKPSGGNTIYAQKFQGRVTMTRDTSTNTVYMDLSSLRSEDTAVYYCARTGDRAFDVWGHGTMITVSS
VL: QSVLTQPPSVSAAPGQKVTISCSGSSSNIGNNFVSWYQQFPGTAPKLLIYDNNKRPSGIPDRFSGSKSGTSATLGITGLQTGDEADYYCGTWDSSLGAGVFGGGTKLTVL
- pseudovirus neutralisation IC50 [1]: 3350 pM

B10: YANG-2204 (antibody, V domains shown)
VH: QMQLVQSGAEVKKPGASVKFSCKTSGYTFTNYYMVWVRQAPGQGLEWMGIIKPSGGNTIYAQKFQGRVTMTRDTSTNTVYMDLTSLRSEDTAVYYCARTGDRAFDVWGQGTMVTVSS
VL: QSVLTQPPSVSAAPGQKVTISCSGSSSNIGNNYVSWYQQLPGTAPKLLIYDNNKRPSGIPDRFSGSKSGTSATLGITGLQTGDEADYYCGTWDSSLGAGVFGGGTKLTVL
- pseudovirus neutralisation IC50 [1]: 3300 pM

B11: IMPI-059 (antibody, V domains shown)
VH: EVQLVESGGGLIQPGGSLRLSCAASGFTVSSIYMSWVRQAPGKGLEWVSIIYSRGSTDYADSVKGRFTISRDISKNTLYLQMNSLRAEDTAVYYCARDGTMVRGVHAFDIWGQGTMVTVSS
VL: DIQMTQSPPSLSASIGDRVTITCQASQDISNYLNWYQQKPGKAPKLLIYDASNLETGVPSRFSGSGSGTDFTLTISNLQPEDIVTYYCQQYDNLPSSFGQGTKLEIK
- HTRF deltaF [2]: 569 deltaF
- HTRF deltaF [3]: 403 deltaF

B12: IMPI-037 (antibody, V domains shown)
VH: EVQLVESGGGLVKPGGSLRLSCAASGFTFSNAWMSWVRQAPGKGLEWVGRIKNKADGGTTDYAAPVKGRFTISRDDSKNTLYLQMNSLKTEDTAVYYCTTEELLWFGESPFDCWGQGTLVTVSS
VL: DIQLTQSPSFLSASVGDRVTITCWASQGINSYLAWYQQKPGKAPKLLIYAASTLQSGVPSRFSGSGSGTEFTLTISSLQPEDFTTYYCQQFNDYPRTFGPGTKVEIK
- HTRF deltaF [2]: 626 deltaF
- HTRF deltaF [3]: 557 deltaF

B13: IMPI-027 (antibody, V domains shown)
VH: QVQLQESGPGLVKPSQTLSLTCTVSGGSISSYGYYWNWIRQHPGKGLEWIGYIYYSGSTYYNPSLKSRVTISVDTSKNQLSLRLNSVSAADTAVYYCARDFGGNSNYFDYWGQGTLVTVSS
VL: AIQLTQSPSSLSASVGDRVTITCRTSQGISSALAWYQQKPGKAPKLLIYDASSLESGVPSRFSGSGSGTDFTLTISSLQPEDFATYYCQQFNSYPLTFGGGTKVEIK
- HTRF deltaF [2]: 755 deltaF
- HTRF deltaF [3]: 800 deltaF

B14: IMPI-033 (antibody, V domains shown)
VH: QVQLQESGPGLVKPSQTLSLTCTVSGGSISSYGYYWSWIRQHPGKGLEWIGYIYYSGSTYYNPSLKSRVTMSVDTSKNQLSLRLNSVSAADTAVYYCARDFGGNSNYFDYWGQGTLVTVSS
VL: AIQLTQSPSSLSASVGDRVTITCRASQGISSALAWYQQKPGKAPNLLIYDASSLESGVPSRFSGSGSGTDFTLTISSLQPEDFATYYCQQFNSSPLTFGGGTKVEIK
- HTRF deltaF [2]: 929 deltaF
- HTRF deltaF [3]: 884 deltaF

B15: IMPI-032 (antibody, V domains shown)
VH: QVQLQESGPGLVKPSGTLSLTCAVSGGSISSNKWWSWVRQPPGKGLEWIGEIDHSGSTMYNPSLKSRVTISVDKSKNQFSLKLNSVTAADTAVYYCTGEGYNWNYWGQGTRVTVSS
VL: DVVMTQSPLSLPVTLGQTASISCRSSQSLLYTDGNTYLSWFQQRPGQSPRRLIYKVSKWESGVPDRFSGSGSGTDFTLKISRVEAEDVGIYYCMQGTHWPLTFGGGTKVEIK
- HTRF deltaF [2]: -8.9 deltaF
- HTRF deltaF [3]: 218 deltaF

B16: IMPI-022 (antibody, V domains shown)
VH: EVQLVESGGGLVQPGRSLRLSCAASGFTFDDYAMHWVRQAPGKGLEWVSGITWNSGSIGYADSVKGRFTISRDNAKNSLYLHMNSLRVEDTALYYCAKDLQGDYYYYGVDVWGQGTTVTVSS
VL: AIQLTQSPSSLSASVGDRVTITCRASQGISSALAWYQQKPGKAPKLLLYDASSLVSGVPSRFSGSRSGTDFTLTISSLQPEDFATYYCQQFISYPLTFGGGTRVEIK
- HTRF deltaF [2]: -5.8 deltaF
- HTRF deltaF [3]: 483 deltaF

Reference: US20250026813A1 (published 2025)
